{"source": "patent US20210310910A1", "about": "(University of California, published 2021)", "binders": {"B1": {"name": "SpyTag peptide anchored to the graphene oxide grid via a PEG spacer (peptide)", "peptide": "VPTIVMVDAYKRYKC", "modifications": "also: Cys coupled to azide-PEG-maleimide on graphene oxide film, position not given here", "notes": "also called SpyTag grid"}}, "molecular_target": "T1, TRAP1 (human mitochondrial Hsp90) fused to SpyTag (human, UniProt Q12931 60-704, limits assumed)", "T1 construct": "Applied at 270 nM; also called TRAP1-SpyTag; TRAP1 with SpyTag", "T1 sequence": "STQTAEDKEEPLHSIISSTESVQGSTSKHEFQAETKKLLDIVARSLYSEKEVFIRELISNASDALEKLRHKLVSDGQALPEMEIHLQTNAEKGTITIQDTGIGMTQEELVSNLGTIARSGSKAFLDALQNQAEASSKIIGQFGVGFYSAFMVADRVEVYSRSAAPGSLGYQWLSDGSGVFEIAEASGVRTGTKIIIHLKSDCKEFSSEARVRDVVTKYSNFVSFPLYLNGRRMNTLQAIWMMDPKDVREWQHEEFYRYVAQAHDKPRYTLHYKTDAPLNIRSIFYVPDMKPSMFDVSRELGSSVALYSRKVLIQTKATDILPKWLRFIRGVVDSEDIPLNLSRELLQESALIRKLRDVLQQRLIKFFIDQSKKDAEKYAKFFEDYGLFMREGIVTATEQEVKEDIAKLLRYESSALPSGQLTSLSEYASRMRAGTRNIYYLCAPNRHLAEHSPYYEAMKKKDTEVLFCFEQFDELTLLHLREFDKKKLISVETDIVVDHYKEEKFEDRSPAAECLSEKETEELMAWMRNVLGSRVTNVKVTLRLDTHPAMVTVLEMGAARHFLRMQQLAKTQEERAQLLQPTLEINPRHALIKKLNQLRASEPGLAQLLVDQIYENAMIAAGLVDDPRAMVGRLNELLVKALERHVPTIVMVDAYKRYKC", "test": "cryo-EM particle density on SpyTag affinity grid after washing", "procedure": "The irreversible covalent bond forms within minutes and is highly specific and robust, paving the way for “purification on the grid”. A buffer with a pH of 7.5 containing 20 mM HEPES, 60 mM KCl was used throughout the process. SpyCatcher was diluted with buffer to a final concentration of 1.4 μM. SpyTag peptide was first dissolved in DMSO to a concentration of 560 μM and then diluted with buffer to a final concentration of 2.8 μM. […] The grid was washed with DI water and ethanol 3 times, and dried in ambient for 1 hour. Then the grid was picked up by tweezers from VITROBOT™ IV (Fisher Thermo Scientfic) and placed horizontally.\nAfter coupling the SpyTag or SpyCatcher to the maleimide grids, incubation with a cognate-tagged protein of interest efficiently formed a stable attachment in a matter of minutes. In a first example, a SpyTag grid was exposed to a dilute solution (270 nM) of the dimeric mitochondrial Hsp90 molecular chaperone (TRAP1, ˜150KDa) fused to either SpyTag (control) or SpyCatcher (cognate sample, total molecular weight ˜165KDa). The grids were extensively washed to remove unbound or loosely adsorbed proteins. TRAP1 with SpyCatcher or SpyTag was diluted in buffer with 1 mM ADP-BeFₓ/MgCl₂ and was incubated at 37° C. for 30 min to achieve a homogenous closed state of TRAP1²⁴. The concentration of TRAP1 was 270 nM in all cases. […]", "note": "Ends that are not written are not given here.", "data": [{"binder": "B1", "values": [{"measurement": "binding result", "value": "no binding (tested: 270 nM)"}]}]}
